These results are taken from patent US20200399394A1 (SURFACE ONCOLOGY, published 2020).

For experiment [1], the target named is T1, human CD39 (ectonucleoside triphosphate diphosphohydrolase 1) (human, UniProt P49961 1-510).
T1 construct: Endogenous CD39 on MOLP-8 and SK-MEL-28 cells, primary human B cells and primary human monocytes; also called ENTPD1; ATPDase
T1 sequence: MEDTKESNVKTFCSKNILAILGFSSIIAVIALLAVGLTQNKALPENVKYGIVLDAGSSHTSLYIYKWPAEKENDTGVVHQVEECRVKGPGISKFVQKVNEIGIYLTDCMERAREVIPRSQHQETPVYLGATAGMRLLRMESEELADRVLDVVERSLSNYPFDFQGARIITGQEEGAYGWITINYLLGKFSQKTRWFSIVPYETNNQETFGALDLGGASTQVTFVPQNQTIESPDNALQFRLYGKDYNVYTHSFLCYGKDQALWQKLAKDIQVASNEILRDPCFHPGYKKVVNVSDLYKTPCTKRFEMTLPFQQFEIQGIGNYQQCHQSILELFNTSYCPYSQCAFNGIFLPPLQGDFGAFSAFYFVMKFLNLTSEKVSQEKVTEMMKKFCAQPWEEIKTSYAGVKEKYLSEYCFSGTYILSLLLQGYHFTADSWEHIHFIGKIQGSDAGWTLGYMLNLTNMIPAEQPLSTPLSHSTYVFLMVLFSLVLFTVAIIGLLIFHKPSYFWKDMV
Description: flow cytometry (MFI), AF488-labelled antibody, told under FIG. 4B (MOLP-8 cells; the sentence prints SK-MEL-28). How it is done:
(§1) The extent of binding to cells was determined and expressed as mean fluorescent intensity (MFI). Cells were washed with FACS Buffer (2 mM EDTA, 2% FBS) and pelleted by centrifugation. The cells were resuspended in FACS buffer containing a dose range of anti-CD39 or isotype control antibodies directly labelled with fluorophore Alexa Fluor 488 (AF488) and incubated for 30 minutes at room temperature. Cells were then washed twice with FACS buffer followed by fixation in 4% paraformaldehyde (PFA) and resuspended in FACS buffer and analyzed on a FACS Canto II analyzer (BD Biosciences).
On the technique in general: In flow cytometry, cells or beads pass a laser one at a time.

In experiment [2] the target is T1, human CD39 (ectonucleoside triphosphate …). Nature of the experiment: flow cytometry (MFI), AF488-labelled antibody on SK-MEL-28 cells, FIG. 4A. How it is done: as §1

B1: SRF370-A (antibody, human IgG4 S228P, kappa, V domains shown)
VH: QVQLVQSGAEVKKPGSSVKVSCKASGGTFSTYAIGWVRQAPGQGLEWMGGIIPAFGTANYAQKFQGRVTITADESTSTAYMELSSLRSEDTAVYYCARDPVRRSPFDIWGQGTMVTVSS
VL: EIVLTQSPATLSLSPGERATLSCRASQSVSSYLAWYQQKPGQAPRLLIYDSSNRATGIPARFSGSGSGTDFTLTISSLEPEDFAVYYCQQSFLWPRTFGGGTKVEIKR
Take B1: in experiment [1], the binding result is on record as “binds”.

B2: SRF365-A (antibody, human IgG4 S228P, kappa, V domains shown)
VH: QVQLVQSGAEVKKPGSSVKVSCKASGGTFSDKAISWVRQAPGQGLEWMGSILPIFGTANYAQKFQGRVTITADESTSTAYMELSSLRSEDTAVYYCAREAGYYRYRYFDLWGRGTLVTVSS
VL: EIVMTQSPATLSVSPGERATLSCRASQSVSSNLAWYQQKPGQAPRLLIYGASTRATGIPARFSGSGSGTEFTLTISSLQSEDFAVYYCQQHALWPLTFGGGTKVEIKR
For the molecule B2, the binding result in experiment [2] is listed as “binds”.
